Reference: FireProtDB (doi:10.1002/pro.5560010709)

B1: Ribonuclease pancreatic, P61823 (parent)
chain: MALKSLVLLSLLVLVLLLVRVQPSLGKETAAAKFERQHMDSSTSAASSSNYCNQMMKSRNLTKDRCKPVNTFVHESLADVQAVCSQKNVACKNGQTNCYQSYSTMSITDCRETGSSKYPNCAYKTTQANKHIIVACEGNPYVPVHFDASV

Variants of: B1
Settings: Bos taurus, pH 4.2, Thermal, CD, Sodium acetate 0.01 M, NaCl 0.1 M, reversible: yes, structure 1RTB, whole UniProt chain shown; for ddG of mutation (higher = less stable) / heat capacity change of unfolding: 56.2 °C

Variant	ddG of mutation (higher = less stable)	heat capacity change of unfolding	Tm	change of melting temperature, mutant - wild type (higher = more stable)
P119A	11.3 kJ/mol	2.2 kcal/mol/K	46.5 °C	-9.5 °C
P119A P140G	17.6 kJ/mol	2.2 kcal/mol/K	36 °C	-20 °C
P119S	8.79 kJ/mol	2.2 kcal/mol/K	47.5 °C	-8.5 °C
P140A	13.4 kJ/mol	2.2 kcal/mol/K	45.5 °C	-10.5 °C
P140G	11.7 kJ/mol	2.2 kcal/mol/K	45.5 °C	-10.5 °C
